Data on 3 molecules can be found in patent US7419799 (GENETECH, dated 2008).

In data set [1] the target is T1, SHP2 (human, UniProt Q06124 2-593).
T1 sequence (looked up): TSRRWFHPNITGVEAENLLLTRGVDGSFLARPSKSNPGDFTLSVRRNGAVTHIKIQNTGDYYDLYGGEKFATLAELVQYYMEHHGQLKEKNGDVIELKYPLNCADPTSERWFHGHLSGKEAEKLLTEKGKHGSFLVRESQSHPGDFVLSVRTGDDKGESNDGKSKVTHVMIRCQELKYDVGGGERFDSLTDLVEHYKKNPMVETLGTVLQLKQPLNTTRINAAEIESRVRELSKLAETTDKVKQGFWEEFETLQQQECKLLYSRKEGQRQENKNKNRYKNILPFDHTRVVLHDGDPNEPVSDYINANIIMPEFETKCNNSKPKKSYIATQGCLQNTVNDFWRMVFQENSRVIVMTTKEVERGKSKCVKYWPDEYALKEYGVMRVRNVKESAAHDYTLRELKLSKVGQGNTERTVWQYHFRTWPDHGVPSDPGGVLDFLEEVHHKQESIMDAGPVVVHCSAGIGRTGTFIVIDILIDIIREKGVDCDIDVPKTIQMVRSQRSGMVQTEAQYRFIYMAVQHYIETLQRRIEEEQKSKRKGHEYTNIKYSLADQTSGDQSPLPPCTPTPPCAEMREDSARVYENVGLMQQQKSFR
The experiment in a line: co-immunoprecipitation from isolated human CD4+ T cells (untreated), Western blot. A general note: In western blotting, separated proteins are transferred to a membrane and probed.

Data set [2] concerns the target T2, SHP1 (human, UniProt P29350 1-595). Described as above.
Data set [3] deals with T1, SHP2. Briefly: co-immunoprecipitation from isolated human CD4+ T cells (CD3 and PRO20080 cross-linked), Western blot.
The target in data set [4] is T2, SHP1. Described as above.
Data set [5] concerns the molecule itself. Briefly: BIAcore, homotypic interaction of His-tagged PRO20080. How it is done: Lastly, a BIAcore® assay was performed to determine if a His-tagged PRO20080 would associate with itself. The association rate can be determined by any method in which formation of the complex may be observed as a function of time. In the BIAcore® analysis, in which one measures the association of the protein to an protein that has been immobilized on a biosensor surface (reviewed by Rich & Myszka, Curr. Opin. Biotechnol. 11:54-61 (2000)).
A general note: In SPR one partner is held on a chip, and binding of the other changes the refractive index at the surface.

T2 sequence (P29350 whole entry): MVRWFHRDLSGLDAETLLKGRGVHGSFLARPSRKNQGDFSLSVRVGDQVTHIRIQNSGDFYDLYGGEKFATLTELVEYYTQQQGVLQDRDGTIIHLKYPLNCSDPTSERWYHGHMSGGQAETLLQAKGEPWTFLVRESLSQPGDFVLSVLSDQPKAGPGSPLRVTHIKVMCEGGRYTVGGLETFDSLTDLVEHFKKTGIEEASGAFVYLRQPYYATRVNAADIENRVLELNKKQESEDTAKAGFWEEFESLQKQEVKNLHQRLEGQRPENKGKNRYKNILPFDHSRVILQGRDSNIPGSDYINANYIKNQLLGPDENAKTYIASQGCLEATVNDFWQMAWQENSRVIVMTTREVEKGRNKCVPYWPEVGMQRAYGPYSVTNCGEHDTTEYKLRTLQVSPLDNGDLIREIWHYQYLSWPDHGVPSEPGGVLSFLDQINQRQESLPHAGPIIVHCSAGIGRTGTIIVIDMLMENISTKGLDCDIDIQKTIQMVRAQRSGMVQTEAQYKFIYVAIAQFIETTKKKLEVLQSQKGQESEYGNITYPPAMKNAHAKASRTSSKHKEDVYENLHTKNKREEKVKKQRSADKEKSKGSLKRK

B1: wild type PRO20080 (full-length, expressed in cells) (receptor)
chain: FGPGNVVSQSSLTPLMVNGILGESVTLPLEFPAGEKVNFITWLFNETSLAFIVPHETKSPEIHVTNPKQGKRLNFTQSYSLQLSNLKMEDTGSYRAQISTKTSAKLSSYTLRILRQLRNIQVTNHSQLFQNMTCELHLTCSVEDADDNVSFRWEALGNTLSSQPNLTVSWDPRISSEQDYTCIAENAVSNLSFSVSAQKLCEDVKIQYTDTKMILFMVSGICIVFGFIILLLLVLRKRRDSLSLSTQRTQGPAESARNLEYVSVSPTNNTVYASVTHSNRETEIWTPRENDTITIYSTINHSKESKPTFSRATALDNVV
notes: also called PRO20080 receptor
For the molecule B1, the binding result in data set [1] and in data set [2] was “no binding” throughout.

B2: phosphorylated PRO20080 (receptor)
chain: FGPGNVVSQSSLTPLMVNGILGESVTLPLEFPAGEKVNFITWLFNETSLAFIVPHETKSPEIHVTNPKQGKRLNFTQSYSLQLSNLKMEDTGSYRAQISTKTSAKLSSYTLRILRQLRNIQVTNHSQLFQNMTCELHLTCSVEDADDNVSFRWEALGNTLSSQPNLTVSWDPRISSEQDYTCIAENAVSNLSFSVSAQKLCEDVKIQYTDTKMILFMVSGICIVFGFIILLLLVLRKRRDSLSLSTQRTQGPAESARNLEYVSVSPTNNTVYASVTHSNRETEIWTPRENDTITIYSTINHSKESKPTFSRATALDNVV
modifications: tyrosine-phosphorylated (detected with anti-phosphotyrosine antibody; sites not stated)
notes: The phosphorylated residues are not identified; also called PRO20080 in pervanadate treated cells; PRO20080 after CD3 and PRO20080 cross linking
For B2, the binding result in data set [3] and in data set [4] was “no binding” throughout.

B3: His-tagged PRO20080 (receptor)
chain: QSSLTPLMVNGILGESVTLPLEFPAGEKVNFITWLFNETSLAFIVPHETKSPEIHVTNPKQGKRLNFTQSYSLQLSNLKMEDTGSYRAQISTKTSAKLSSYTLRILRQLRNIQVTNHSQLFQNMTCELHLTCSVEDADDNVSFRWEALGNTLSSQPNLTVSWDPRISSEQDYTCIAENAVSNLSFSVSAQKLCEDVKIQYTDTKM
notes: In the BIAcore assay the same protein served as both the immobilized and the soluble partner; not shown: His tag
Turning to B3, the Kd in data set [5] is above 100 µM.

Usually Kd stands for the constant that tells how readily two partners part at equilibrium. A higher Kd goes with a looser complex.
